{"source": "patent US20170275344A1", "about": "“POLYPEPTIDES AND USES THEREOF AS A DRUG FOR TREATMENT OF AUTOIMMUNE DISORDERS” (Compugen Ltd., priority 2014, published 2017)", "molecules": {"B1": {"name": "C1ORF32 ECD-Fc (SEQ ID NO:42): fusion protein of human C1ORF32 ECD fused to mouse immunoglobulin Fc (human-mouse fusion protein) (protein)", "chain": "LQVTVPDKKKVAMLFQPTVLRCHFSTSSHQPAVVQWKFKSYCQDRMGESLGMSSTRAQSLSKRNLEWDPYLDCLDSRRTVRVVASKQGSTVTLGDFYRGREITIVHDADLQIGKLMWGDSGLYYCIITTPDDLEGKNEDSVELLVLGRTGLLADLLPSFAVEIMGSENLYFQGSGEPRGPTIKPCPPCKCPAPNLLGGPSVFIFPPKIKDVLMISLSPIVTCVVVDVSEDDPDVQISWFVNNVEVHTAQTQTHREDYNSTLRVVSALPIQHQDWMSGKEFKCKVNNKDLPAPIERTISKPKGSVRAPQVYVLPPPEEEMTKKQVTLTCMVTDFMPEDIYVEWTNNGKTELNYKNTEPVLDSDGSYFMYSKLRVEKKNWVERNSYSCSVVHEGLHNHHTTKSFSRTPGK", "modifications": "Fusion protein human C1ORF32-ECD fused to mouse IgG2a Fc"}}, "tested_on": "male DBA-1 mice", "assay": "Established collagen-induced arthritis (CIA), therapeutic regimen", "type": "in vivo, mouse", "protocol": "Bovine type II collagen (CII) (RUNMC in house production, batch 03-04-08) at a concentration of 2 mg/ml in acetic acid 0.05M was emulsified in equal volumes of Freund's complete adjuvant (2 mg/ml of Mycobacterium tuberculosis strain H37Ra; Difco, Detroit, Mich.).\nOn day 0, 10-12 week old male DBA-1 mice (Janvier Elevage, France) (n=95) were immunized i.d. at the base of the tail with 100 μg of bovine CII. On day 21, mice received an intraperitoneal booster injection of 50 μg of CII dissolved in phosphate buffered saline (PBS), and the onset of arthritis occurred a few days after this booster.\nJoint inflammation in each paw was scored visually, using a scale of 0-2 per paw with a maximal score of 8 per animal: 0=non inflamed, 1=mild inflammation, 1.5=marked inflammation, and 2=severe inflammation. Scoring was performed three times a week.\nTreatment was started in established CIA early after onset of disease (i.e. therapeutic regimen), when the macroscopic scores per animal were between 0.25 and 1.25 (on a scale of 0-8). The i.p. injections were given three times per week for two weeks, after which the study was terminated and mice were terminally bled to collect serum. Thereafter, the knee and ankle joints were collected and stored in formalin. Histology was scored for inflammation and destruction on an arbitrary scale of 0-3, for five different parameters: • Joint inflammation • Cartilage proteoglycan (PG) depletion • Chondrocyte death • Cartilage erosion • Bone erosion\n1. Negative control: PBS 2. Negative control mIgG2A (Bioxcell, BE0085): 10 mg/kg 3. C1ORF32 ECD-Fc (SEQ ID NO:42): 10 mg/kg 4. C1ORF32 ECD-Fc (SEQ ID NO:42): 5 mg/kg 5. Positive control: Enbrel (Wyeth, F01421) 5 mg/kg\nJoints were fixed for at least 4 days in 4% formaldehyde, decalcified in 5% formic acid, and subsequently dehydrated and embedded in paraffin. Standard frontal sections of 7 μm were mounted on SuperFrost slides (Menzel-Glaser, Braunschweig, Germany). Haematoxylin and eosin (H&E) staining was performed to study joint inflammation. The severity of inflammation in the joints was scored on a scale of 0-3 (0=no cells, 1=mild cellularity, 2=moderate cellularity, and 3=maximal cellularity). To study proteoglycan (PG) depletion from the cartilage matrix, sections were stained with safranin O (SO) followed by counterstaining with fast green. Depletion of PG was determined using an arbitrary scale of 0-3, ranging from normal, fully stained cartilage to destained cartilage, fully depleted of PGs. Chondrocyte death was scored on a scale of 0-3 ranging from no loss of chondrocyte nuclei to complete empty cartilage surface. The degree of cartilage surface erosion was scored on a scale of 0-3, ranging from no damage to complete loss of articular cartilage. Bone destruction was graded separately on a scale of 0-3, ranging from no damage to the complete loss of bone structure. Histopathological changes in the joint were scored on three semiserial sections of the joint spaced 70 μm apart. Scoring was performed in a blindfolded manner.\nStatistical analysis: Disease course data was analyzed using one-way ANOVA with repeated measures, with a Bonferroni's post-test of selected pairs to determine statistical differences between C1ORF32 ECD-Fc (SEQ ID NO:42) and Enbrel treated mice, each as compared to Control Ig (IgG2a) treated group."}
{"molecule": "B1", "values": [{"measurement": "clinical (macroscopic) scores of arthritis", "setting": "5 mg/kg i.p. 3x/wk for 2 wks", "result": "did not demonstrate any effect"}, {"measurement": "clinical (macroscopic) scores of arthritis", "setting": "10 mg/kg i.p. 3x/wk for 2 wks, p<0.001 vs mIgG2a", "result": "significantly reduced the clinical scores of arthritis"}, {"measurement": "histological arthritis pathology of ankle joints", "setting": "10 mg/kg, after two weeks of therapy, did not reach statistical significance", "result": "trend of reduced arthritis pathology"}, {"measurement": "results over three CIA studies", "setting": "three studies", "result": "excellent results in two studies and weak results in one study"}]}
